The source of these data is publication PMC11886768 (2025).

B1: GFP-CRY1 (N. benthamiana) [Arabidopsis] / cLUC-COP1 [Arabidopsis] (parent)
chain 1: MSGSVSGCGSGGCSIVWFRRDLRVEDNPALAAAVRAGPVIALFVWAPEEEGHYHPGRVSRWWLKNSLAQLDSSLRSLGTCLITKRSTDSVASLLDVVKSTGASQIFFNHLYDPLSLVRDHRAKDVLTAQGIAVRSFNADLLYEPWEVTDELGRPFSMFAAFWERCLSMPYDPESPLLPPKKIISGDVSKCVADPLVFEDDSEKGSNALLARAWSPGWSNGDKALTTFINGPLLEYSKNRRKADSATTSFLSPHLHFGEVSVRKVFHLVRIKQVAWANEGNEAGEESVNLFLKSIGLREYSRYISFNHPYSHERPLLGHLKFFPWAVDENYFKAWRQGRTGYPLVDAGMRELWATGWLHDRIRVVVSSFFVKVLQLPWRWGMKYFWDTLLDADLESDALGWQYITGTLPDSREFDRIDNPQFEGYKFDPNGEYVRRWLPELSRLPTDWIHHPWNAPESVLQAAGIELGSNYPLPIVGLDEAKARLHEALSQMWQLEAASRAAIENGSEEGLGDSAEVEEAPIEFPRDITMEETEPTRLNPNRRYEDQMVPSITSSLIRPEEDEESSLNLRNSVGDSRAEVPRNMVNTNQAQQRRAEPASNQVTAMIPEFNIRIVAESTEDSTAESSSSGRRERSGGIVPEWSPGYSEQFPSEENGIGGGSTTSSYLQNHHEILNWRRLSQTG
chain 2: MEEISTDPVVPAVKPDPRTSSVGEGANRHENDDGGSGGSEIGAPDLDKDLLCPICMQIIKDAFLTACGHSFCYMCIITHLRNKSDCPCCSQHLTNNQLYPNFLLDKLLKKTSARHVSKTASPLDQFREALQRGCDVSIKEVDNLLTLLAERKRKMEQEEAERNMQILLDFLHCLRKQKVDELNEVQTDLQYIKEDINAVERHRIDLYRARDRYSVKLRMLGDDPSTRNAWPHEKNQIGFNSNSLSIRGGNFVGNYQNKKVEGKAQGSSHGLPKKDALSGSDSQSLNQSTVSMARKKRIHAQFNDLQECYLQKRRQLADQPNSKQENDKSVVRREGYSNGLADFQSVLTTFTRYSRLRVIAEIRHGDIFHSANIVSSIEFDRDDELFATAGVSRCIKVFDFSSVVNEPADMQCPIVEMSTRSKLSCLSWNKHEKNHIASSDYEGIVTVWDVTTRQSLMEYEEHEKRAWSVDFSRTEPSMLVSGSDDCKVKVWCTRQEASVINIDMKANICCVKYNPGSSNYIAVGSADHHIHYYDLRNISQPLHVFSGHKKAVSYVKFLSNNELASASTDSTLRLWDVKDNLPVRTFRGHTNEKNFVGLTVNSEYLACGSETNEVYVYHKEITRPVTSHRFGSPDMDDAEEEAGSYFISAVCWKSDSPTMLTANSQGTIKVLVLAA

In the first test the parent is B1. The test can be described thus: luciferase complementation imaging (LCI) competition assay (cLUC-COP1 + HY5-nLUC). The following applies: with cLUC-COP1 [Arabidopsis]; transfected N. benthamiana leaves, n = 22, CCD camera; value is the mean ('+'), median about 0.95; GFP-NLS-GUS control = 1; higher signal = less displacement …; parent: 0.6; read off a plot.
As for chain 1 V548A P549A, the screen value worked out at 1.1.

Variants of B1 are the subject of the next test. The test can be described thus: mammalian three-hybrid (M3H) competition assay (displacement of HY5-VP16 from E-COP1). The following applies: with E-COP1 [Arabidopsis]; CHO-K1 cells, blue light (10 μmol m−2 s−1), 24 h; higher signal = less displacement of HY5 by the CRY1 variant; GFP control est. 150; parent: 30; read off a plot.
In the case of chain 1 V548A P549A, the screen value (Au (SEAP/sNLuc)) worked out at 150.

The same test, now with this note: with E-COP1 [Arabidopsis]; CHO-K1 cells, darkness, 24 h; higher signal = less displacement of HY5 by the CRY1 variant; GFP control est. 150; parent: 76; read off a plot.
With chain 1 V548A P549A, the screen value (Au (SEAP/sNLuc)) was 130.
